Test results from the Immune Epitope Database (IEDB).

How the values were obtained:
[1] = biological target: HLA-B*57:01; experiment: IEDB peptide-MHC binding, purified MHC/competitive/radioactivity; filed as Kd, often an IC50 or EC50 that approximates it; ≥ and ≤ were set here for values at or beyond the usual limits of such assays
[2] = biological target: HLA-B*53:01; experiment: as above
[3] = biological target: HLA-B*58:01; experiment: as above
[4] = biological target: HLA-B*07:02; experiment: IEDB peptide-MHC binding, purified MHC/competitive/fluorescence; filed as Kd, often an IC50 or EC50 that approximates it; ≥ and ≤ were set here for values at or beyond the usual limits of such assays
[5] = biological target: HLA-A*24:02; experiment: IEDB peptide-MHC binding, purified MHC/competitive/fluorescence; ≥ and ≤ were set here for values at or beyond the usual limits of such assays
[6] = biological target: HLA-A*02:01; experiment: as above
[7] = biological target: HLA-B*08:01; experiment: as above
[8] = biological target: HLA-A*02:01; experiment: IEDB peptide-MHC binding, purified MHC/competitive/fluorescence; filed as Kd, often an IC50 or EC50 that approximates it; ≥ and ≤ were set here for values at or beyond the usual limits of such assays
[9] = biological target: HLA-A*02:12; experiment: as above; conditions: source organism: Francisella tularensis subsp. holarctica OSU18
[10] = biological target: HLA-A*24:02; experiment: IEDB peptide-MHC binding, purified MHC/competitive/radioactivity; filed as Kd, often an IC50 or EC50 that approximates it; ≥ and ≤ were set here for values at or beyond the usual limits of such assays; conditions: source organism: Dengue virus 2 Jamaica/1409/1983
[11] = biological target: HLA-B*35:01; experiment: as above
[12] = biological target: HLA-B*07:02; experiment: IEDB peptide-MHC binding, purified MHC/competitive/fluorescence; ≥ and ≤ were set here for values at or beyond the usual limits of such assays
[13] = biological target: HLA-A*29:02; experiment: IEDB peptide-MHC binding, purified MHC/competitive/fluorescence; filed as Kd, often an IC50 or EC50 that approximates it; ≥ and ≤ were set here for values at or beyond the usual limits of such assays
[14] = biological target: HLA-A*02:19; experiment: as above
[15] = biological target: HLA-B*40:01; experiment: as above
[16] = biological target: HLA-A*11:01; experiment: IEDB peptide-MHC binding, purified MHC/direct/fluorescence; filed as Kd, often an IC50 or EC50 that approximates it; ≥ and ≤ were set here for values at or beyond the usual limits of such assays; conditions: source organism: Escherichia coli O157:H7
[17] = biological target: HLA-A*03:01; experiment: as above
[18] = biological target: HLA-A*01:01; experiment: as above
[19] = biological target: HLA-A*29:02; experiment: as above; conditions: source organism: Escherichia coli O157:H7
[20] = biological target: HLA-B*57:01; experiment: as above
[21] = biological target: HLA-A*69:01; experiment: as above; conditions: source organism: Escherichia coli O157:H7
[22] = biological target: HLA-B*46:01; experiment: as above; conditions: source organism: Escherichia coli O157:H7
[23] = biological target: HLA-B*27:05; experiment: as above
[24] = biological target: HLA-B*18:01; experiment: as above; conditions: source organism: Escherichia coli O157:H7
[25] = biological target: HLA-B*48:01; experiment: as above; conditions: source organism: Escherichia coli O157:H7
[26] = biological target: HLA-B*44:02; experiment: as above; conditions: source organism: Escherichia coli O157:H7
[27] = biological target: HLA-B*40:01; experiment: as above; conditions: source organism: Escherichia coli O157:H7
[28] = biological target: HLA-B*58:01; experiment: as above
[29] = biological target: HLA-A*69:01; experiment: IEDB peptide-MHC binding, purified MHC/competitive/fluorescence; filed as Kd, often an IC50 or EC50 that approximates it; ≥ and ≤ were set here for values at or beyond the usual limits of such assays; conditions: source organism: Human immunodeficiency virus 1
[30] = biological target: HLA-B*15:01; experiment: as above
[31] = biological target: HLA-B*51:01; experiment: as above; conditions: source organism: Bacillus anthracis str. A2012
[32] = biological target: HLA-B*35:01; experiment: as above; conditions: source organism: Bacillus anthracis str. A2012
[33] = biological target: HLA-A*32:01; experiment: IEDB peptide-MHC binding, purified MHC/competitive/radioactivity; filed as Kd, often an IC50 or EC50 that approximates it; ≥ and ≤ were set here for values at or beyond the usual limits of such assays; conditions: source organism: Dengue virus 3 Martinique/1243/1999
[34] = biological target: HLA-B*15:01; experiment: IEDB peptide-MHC binding, purified MHC/direct/fluorescence; filed as Kd, often an IC50 or EC50 that approximates it; ≥ and ≤ were set here for values at or beyond the usual limits of such assays; conditions: source organism: Bacillus anthracis
[35] = biological target: HLA-B*07:02; experiment: as above
[36] = biological target: HLA-A*02:01; experiment: as above
[37] = biological target: HLA-B*15:17; experiment: as above
[38] = biological target: HLA-A*02:03; experiment: IEDB peptide-MHC binding, purified MHC/competitive/fluorescence; filed as Kd, often an IC50 or EC50 that approximates it; ≥ and ≤ were set here for values at or beyond the usual limits of such assays; conditions: source organism: Human immunodeficiency virus 1
[39] = biological target: HLA-B*15:17; experiment: as above; conditions: source organism: Human immunodeficiency virus 1
[40] = biological target: HLA-B*15:01; experiment: IEDB peptide-MHC binding, purified MHC/competitive/fluorescence; ≥ and ≤ were set here for values at or beyond the usual limits of such assays; conditions: source organism: Zaire ebolavirus
[41] = biological target: HLA-A*68:02; experiment: IEDB peptide-MHC binding, purified MHC/direct/fluorescence; filed as Kd, often an IC50 or EC50 that approximates it; ≥ and ≤ were set here for values at or beyond the usual limits of such assays; conditions: source organism: Escherichia coli O157:H7
[42] = biological target: HLA-A*31:01; experiment: as above; conditions: source organism: Escherichia coli O157:H7
[43] = source organism: Dengue virus 3 Martinique/1243/1999
[44] = source organism: Dengue virus 1 Brazil/97-11/1997
[45] = source organism: Zaire ebolavirus
[46] = source organism: Dengue virus 2 Jamaica/1409/1983
[47] = source organism: Vaccinia virus WR
[48] = source organism: Entamoeba histolytica HM-1:IMSS
[49] = source organism: Escherichia coli O157:H7
[50] = source organism: Human immunodeficiency virus 1
[51] = source organism: Bacillus anthracis str. A2012
[52] = source organism: Dengue virus 4 Philippines/H241/1956
[53] = source organism: Escherichia coli O157:H7 str. EDL933
[54] = source organism: Yersinia pestis CO92
[55] = source organism: Bacillus anthracis
[56] = source organism: Sudan ebolavirus

Sequence: KTRTNDWDF
- Kd ([1]; source organism: Dengue virus 2 Peru/IQT2913/1996): 0.00654 µM

Sequence: AAVEDEDFW
- Kd [1, 43]: 1.11 µM
- Kd [2, 43]: 0.334 µM
- Kd [3, 43]: 0.112 µM

Sequence: WMSSEGAWKQ
- Kd [3, 44]: 7.76 µM

Sequence: LPFERATV
- Kd ([4]; source organism: Influenza A virus (A/swine/Italy/2/1979(H1N1))): 0.0105 µM

Sequence: SLFLPKLVV
- IC50 [5, 45]: 45.4 µM
- IC50 [6, 45]: 0.2 µM
- IC50 [7, 45]: ≥ 293 µM

Sequence: SVYSWAIML
- Kd ([8]; source organism: Francisella tularensis subsp. holarctica OSU18): 0.0175 µM
- Kd [9]: 2.31 µM

Sequence: MSSEGAWKQI
- Kd [1, 44]: 0.231 µM
- Kd [3, 44]: 0.786 µM

Sequence: IAASIILEF
- Kd [10]: 0.475 µM
- Kd [11, 46]: 0.022 µM
- Kd [2, 46]: 0.0261 µM
- Kd [3, 46]: 0.00703 µM

Sequence: YRHILRSQG
- IC50 [7, 45]: ≥ 171 µM

Sequence: VPKLLLWFN
- IC50 ([12]; source organism: Variola virus): ≥ 810 µM
- IC50 ([5]; source organism: Variola virus): 9.71 µM

Sequence: TVEGIGHHY
- Kd ([13]; source organism: Shigella sonnei Ss046): 0.036 µM

Sequence: LPWTKISET
- IC50 [12, 47]: ≥ 81.6 µM
- IC50 [5, 47]: 66.7 µM
- IC50 [6, 47]: ≥ 405 µM
- IC50 [7, 47]: ≥ 86.8 µM

Sequence: SMFYGIFPS
- Kd [8, 48]: 0.0002 µM
- Kd [14, 48]: 0.285 µM

Sequence: ASSGMLWMAE
- Kd [1, 43]: ≥ 29.3 µM
- Kd [3, 43]: 2.27 µM

Sequence: YETLVGLAI
- Kd ([15]; source organism: Salmonella enterica subsp. enterica serovar Typhi): 0.004 µM

Sequence: KTSIGLICVI
- Kd [1, 43]: 0.213 µM

Sequence: MLKLRQARL
- Kd [16]: ≥ 20 µM
- Kd [17, 49]: ≥ 20 µM
- Kd [18, 49]: ≥ 20 µM
- Kd [19]: ≥ 20 µM
- Kd [20, 49]: ≥ 20 µM
- Kd [21]: ≥ 20 µM
- Kd [22]: ≥ 20 µM
- Kd [23, 49]: ≥ 20 µM
- Kd [24]: ≥ 20 µM
- Kd [25]: ≥ 20 µM
- Kd [26]: ≥ 20 µM
- Kd [27]: ≥ 20 µM
- Kd [28, 49]: ≥ 20 µM

Sequence: LTFGWCFKL
- Kd [8, 50]: 0.151 µM
- Kd [29]: 0.0465 µM
- Kd [14, 50]: 0.755 µM

Sequence: LWNPYEWYQ
- Kd [13, 51]: 0.52 µM

Sequence: IAVSTANIF
- Kd [1, 52]: 0.407 µM
- Kd [11, 52]: 0.151 µM

Sequence: FERGVINVF
- Kd [30, 53]: 0.265 µM
- Kd [15, 53]: 3.21 µM

Sequence: GELIFSHNL
- Kd [30, 54]: 3.15 µM
- Kd [15, 54]: 0.007 µM

Sequence: MPLKKQILF
- Kd [4, 51]: 0.279 µM
- Kd [31]: 0.13 µM
- Kd [32]: ≤ 0.0001 µM

Sequence: FEVKKRDGV
- IC50 [7, 45]: ≥ 158 µM

Sequence: RVWIEDNPW
- Kd [1, 43]: 0.0496 µM
- Kd [33]: 0.0719 µM
- Kd [3, 43]: 0.00211 µM

Sequence: RTIQGQRFW
- Kd [17, 55]: ≥ 20 µM
- Kd [34]: ≥ 20 µM
- Kd [18, 55]: ≥ 20 µM
- Kd [35, 55]: ≥ 20 µM
- Kd [20, 55]: ≥ 20 µM
- Kd [36, 55]: ≥ 20 µM
- Kd [23, 55]: ≥ 20 µM
- Kd [37, 55]: ≥ 20 µM
- Kd [28, 55]: ≥ 20 µM

Sequence: LYNTVATLY
- Kd [38]: 0.571 µM
- Kd [8, 50]: 1.16 µM
- Kd [39]: ≥ 20 µM

Sequence: SVGHMMVIF
- IC50 [40]: 10.5 µM
- IC50 [12, 45]: ≥ 277 µM
- IC50 [5, 45]: 2.41 µM
- IC50 [6, 45]: 18.6 µM

Sequence: MNHKNKFMA
- IC50 [6, 45]: ≥ 143 µM
- IC50 [7, 45]: 19.9 µM

Sequence: HEVHAVWPG
- Kd [16]: ≥ 20 µM
- Kd [41]: ≥ 20 µM
- Kd [18, 49]: ≥ 20 µM
- Kd [35, 49]: ≥ 20 µM
- Kd [20, 49]: ≥ 20 µM
- Kd [36, 49]: ≥ 20 µM
- Kd [21]: ≥ 20 µM
- Kd [23, 49]: ≥ 20 µM
- Kd [24]: 0.193 µM
- Kd [25]: ≥ 20 µM
- Kd [37, 49]: ≥ 20 µM
- Kd [42]: ≥ 20 µM
- Kd [27]: ≥ 20 µM
- Kd [28, 49]: ≥ 20 µM

Sequence: RLDRPHTPQ
- IC50 [12, 56]: 28.5 µM
- IC50 [6, 56]: ≥ 88.5 µM
